The numbers were not newly measured in paper PMC3325482, which cites them from elsewhere.

For this series, the target named is Cd200R (Rattus norvegicus) (UniProt Q9ES58).
Sequence of UniProt Q9ES58 (Q9ES58 24-239): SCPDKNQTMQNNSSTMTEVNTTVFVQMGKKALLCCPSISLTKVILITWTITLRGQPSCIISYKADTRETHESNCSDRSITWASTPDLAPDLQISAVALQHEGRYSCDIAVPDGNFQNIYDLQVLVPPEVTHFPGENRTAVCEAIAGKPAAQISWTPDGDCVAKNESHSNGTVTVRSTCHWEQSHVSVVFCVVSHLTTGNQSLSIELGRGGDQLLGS

By Kd is commonly meant the free concentration of one partner at which half of the binding sites on the other are occupied at equilibrium, for simple one-to-one binding. Cd200 (from UniProt P04218): the Kd was 2000 nM.
